# Results as given in the DeepSol protein solubility set.
# Assay: soluble on expression in E. coli; label from the status in PepcDB or PDB records
row,Sequence,soluble on expression in E. coli
1,MGSDKIHHHHHHMSTVIDSNIFNTLVSNTFYSCPLGGAIYDTEGNLIDLNKAMFAHFSLADKHDFIIEHLFNNIVLTDSLKSSLRKGDAIICEEPVTFKVEPIYTDEQGLSGYTLWLTQQGEKETDRENKLLMGQLNESRILMRQALEDGKLAAYSFSFDRFSTCDKRHCNRCFQFYGTTNTLLDKNRFICRALSSVRKPEDSLDFFYLFNKIRDEKLSSHNVTFHLRNQDGTYKMYEISGKSMDIDESGTPHVIIGSIIEKENDELAIADHQKSKDLSLLKSTFLANMTHEIRTPLNAIVGFSDMLGLEDDPEMREQYISMIKENNTALLELINDTLEMSRIESNTINWSYEDVNPLAIMHDVYEYASPRISKNVRLILDDSPNVSLHTDKHKLMLILKKLLSNALRYTEKGEIHFGYQSLYPVSVQFYVSDTGNGIPKDKLGHIFERFVQLNEFQPGTGLGLSICKGLVTAMGGTIWVNSEEGKGSTFSFKLPITPPDTIS,not soluble
2,MGSDKIHHHHHHMSVGRIGFIGTGSITEAIVTGLATCADVPTEVWLSPRNAQIADRLAQAYPMVQVAGENQEVVDRCDVVCLAVRPQVAESVLQALRFSGRHHVISFIATYGLDKLRTLIAPAKTLVRAAPLPTVAEHLCNTLVFPADDIARSLFTQLGGAIEVGSEEAFDVLFSATATMGSYFALLHNQARWLEQHGSTYSEARDYLASLHFGLASVARKTQTRFDELSKEFTTAGGLNEQVLDALGAHRVFNAFDDAFDQVLHRIGGTVSQRNE,not soluble
3,MGSDKIHHHHHHMSVPQRPHQFVLTLSCPSAAGQVAAVVGLLDRHRCYVDELTVFDDDLSARFFVRCVFHATDDADALRVDALRREFEPIAERFRMQWAIHDVAARPKVLIMVSKLEHCLADLLFRWKMGELKMDIVGIVSNHPDFAPLAAQHGLPFRHFPITADTKAQQEAQWLDVFETSGAELVILARYMQVLSPEASARLANRAINIHHSFLPGFKGAKPYHQAHARGVKLIGATAHFVTDDLDEGPIIEQVVERVDHSYRPEQLLAVGRDVECITLARAVKAFIERRVFLNGDRTVVFQ,not soluble
4,MGSDKIHHHHHHMTAAAATTAGATGGASRRPADEAIAADARALSEQLKAMRDRLFAPTAMKTLRSFTSGEAAKLIGVSDGYLRQLSLAGEGPQPDTGAGGRRSYSLSDINALRRHLAEQAIAKGNGAKARGYLKWRDAARSEHLQVISVTNFKGGSGKTTSSVHLAQYLALTGHRVLAVDLDPQASLSALFGYQPELDLTGNDTLYGAIRYDAEARPLKDIIRKTYFDGLDLVPGNLELQEFEHTTPQALSARQSGADAGPLFFARVQAALASVADDYDVVVIDCPPQLGYLTLSALCASTSVIVTVHPQMLDVASMNQFLYMTSDLLSVVRDAGGELNFDFLRYLVTRFEPNDGPQAQIVGFMRSLFGDRVLTSAMVKSTAISDAGLTKQTLYEVGRENFTRATYDRAIESLNAVNGEIEALIHAAWGR,not soluble
5,MGSDKIHHHHHHMTARQDLVDLIAAIDAGSGPARNPYWRDLAVDDSVARKAAVLMLFGALDNVPAASGKPLAPADLDVLLLERAHTLDDHPGQVAFPGGGIDPGETPIEAALREAEEETGLDSAGVEVLGAMPQLALPRGNFLVTPVLAWWHSPSPVRVVDYGESAQVFRVPVRDLLDPDNRVMATVSRAGQSFLSPAFVVNKVVVWGFTGMILNELFDHLGWSVPWDRSRLHQIDV,not soluble
6,MGSDKIHHHHHHMTAVNIWKPEDNIPREILAILSKPHPNYQLAFLNIIQLLKTQRRTGWVDHGIDPCESISDHMYRMGLTTMLITDKNVDRNKCIRIALVHDFAESLVGDITPNDPMTKEEKHRREFETVKYLCESIIRPCSESASREILDDWLAYEKQTCLEGRYVKDIDKYEMLVQCFEYEQKYNGKKDLKQFLGAINDIKTDEVKKWTQSLLEDRQAFFDSLKE,not soluble
7,MGSDKIHHHHHHMTDSRQRLLVFAPTRRVASETFVRANLAGLPFEVSAYFGDEFPLDQPGRFAYGLGVLLSKIFTRLGWLRLAELPAAFVAWILIRRHRPDVVLAEFGFHAVRVMQAAARVDVPFVVHFRGSDLSANRRLGVLRSRYRRLVSIASGVVCKSRPMATTLEQLGASPSTILISPSGANPALFSVGDPALAAPVFLAVGRFVAKKGPLQTIRAFAGQPQGELWMVGEGPLLAEARRLVQALQVQDRVRFLGVKTQSEVAALMRQARVFVQHSQIAPDGDSEGNPVSVMEAQLCGLPVVATLHAGIPDVVLDGSTGLLVEENDVDGMAEAMTRLMADPNLAAQFGLAGRERVLAAFTLEHHLQDLTRFLQQQIRSTTHF,not soluble
8,MGSDKIHHHHHHMTEKLVAEKISNRHPAAAPLATGQVPWAIKGELILNCNCTVFCPCVVSLGKHAPTEGYCQAWSGVRIDEGHYGDEDLSGLNVGLMLEIPGLMARGNWKAAAYIDERSSSAAYEGLVNIFSGKARGTTGLFAVLVSEFLGAERAPVIFETEGNARRLMVGKKIQGEIVPVPGKGGADQVVTNTEYWMGPDITVATATKGRVRAFGRVWDFDGRSAEICQIDWSGPR,not soluble
9,MGSDKIHHHHHHMTENSRKTATELFEFLDGLGISHTTKQHEPVFTVAESQSLRDLIPGGHTKNLFVKDKKDQYFVLTVEENAVVDLKSVHKTIGAASRVSFGRPEKMLEYLGVVPGSVTVFGAINDTARQVTFVLDSDLLENELVNGHPLSNDQTTTIASKDLIRFLEATGHAPLVLKVSE,soluble
10,MGSDKIHHHHHHMTEQATTTDELAFTRPYGEQEKQILTAEAVEFLTELVTHFTPQRNKLLAARIQQQQDIDNGTLPDFISETASIRDADWKIRGIPADLEDRRVEITGPVERKMVINALNANVKVFMADFEDSLAPDWNKVIDGQINLRDAVNGTISYTNEAGKIYQLKPNPAVLICRVRGLHLPEKHVTWRGEAIPGSLFDFALYFFHNYQALLAKGSGPYFYLPKTQSWQEAAWWSEVFSYAEDRFNLPRGTIKATLLIETLPAVFQMDEILHALRDHIVGLNCGRWDYIFSYIKTLKNYPDRVLPDRQAVTMDKPFLNAYSRLLIKTCHKRGAFAMGGMAAFIPSKDEEHNNQVLNKVKADKSLEANNGHDGTWIAHPGLADTAMAVFNDILGSRKNQLEVMREQDAPITADQLLAPCDGERTEEGMRANIRVAVQYIEAWISGNGCVPIYGLMEDAATAEISRTSIWQWIHHQKTLSNGKPVTKALFRQMLGEEMKVIASELGEERFSQGRFDDAARLMEQITTSDELIDFLTLPGYRLLA,not soluble
11,MGSDKIHHHHHHMTFAQIQTFLAVARLGNFHAAARQLNVTQAAVSARVRQLEEELDLRLFERGRRGAELTEAGRFLLPGAEAIASTWTTISKDARHFYAGRVPLRLGGQLSIWDQQLVDLVIWVEETLGALPLALNFDHEMNVQDAIRNGVLDFALTHEQPAPDLTGVALPAERLVLVGSEPFDLGQSDLPLFMNFQLGGQYDAFVARHLSGHAGQHIMMGNCAMGLRYLRKRGGIAFFPVSMVVEDIQHGHLFPVQGVPEMELACNAVYHPSSVLGDLTAQIATAARSLRSREPVVALDTMS,not soluble
12,MGSDKIHHHHHHMTFGEKLLNAASTRGRLCVGIDPHESLLTSWGLPVNVDGLAEFSRACVEAFADTVALVKPQVAFYERFGSAGFAILEETIQTLRERGCLVVSDAKRGDIGSTMAGYASAWLDPASPLSSDAVTVSPYLGFHSLDPVFELAEQHGRGVFVLAATSNPEARELQDQQNADGVSISQQIVDQAAALNAPYMAQGKAGNIGVVIGATLSKPPRLSTLGGAILMPGVGAQGGTASDVDEIAGDMAHLAFPNVSRSILATGPDIAEMKNSVAKNAADFPGFPRS,not soluble
13,MGSDKIHHHHHHMTFRGGNTGAKHAVVVGSGPNGLTTAAVLAKAGWQVDVYEAAPTPGGAARSESVLGEGTISDLGAAGHPFGVASPAFHYLGLEDHGLEWAYSPFAMAHPLDYGRAGLLETSLPETAKKLGPDARRWKNLHQGLTKNIDKHLANLLGPVLKWPAHPIRMAKFGPFALLPAKRLASAAFETEEARSLFIGSAMHSVTPPHKPMTASLGLLFGALGMSRGWPVAVGGSGRIVDALVNVINHHGGTIHCDSQIDSLSQFRDTDAIILNQTPSQVLKLKGTDLNAGLPQRMSTWKHGPSSYKVDYLLDGPIPWSNPQVGQATTVHVGGSSEEIAFAEAEVAAGRMPERPFIILCQQQVADPSRAREGRHVVWAYAHVPRGFVDKRAALLITAQIERFAPGFRDRIVHSVDTNAEDLEAWNPNLVGGDITAGSALLRRMPTKIGEKTYMASASNAPGGGVHGMPGWWAAQAVLADHR,not soluble
14,MGSDKIHHHHHHMTGIVTANWWTSLIYRVFVRTACLRAGRGLLPNIWEWLWRLSCNIIEGPVDITIHNRPAIVNFGYTYPIYMRCYPELNAPLVELTYQCWRSRGTAICIVDVGAAVGDTMLLLHSNLPEAVGSFVCIEGDQEFYRYLQHNLGHMTEGRLINVVVADQETEVSDLVRIHTGTASAQGERTRGASTLSAVVTEEIDLIKIDVDGFDGRVLLGAEDLLKRCRPLVIFEWHPSLCRQTGNNWTDHFDVLARCGYSRCLWFTKFGHFSHFSFGHCREEIDTLAEYCMSDVVKDWHYDVIALHDDSDLSLLLLSQLGFAKARPSRY,not soluble
15,MGSDKIHHHHHHMTIDNQTGLVLEGGGMRGVFTCGVLDYLMDHDIRFPYTIGVSAGACNGLSYMSRQRGRAKYSNIDLLEKYHYIGLKHLLKKRNILDFDLLFTEFPEHILPYDYQAYFDSPERYVMVTTNCLTGEADYFEEKKDKNRVIDIVRASSSLPFVCPIAYVDGIPMLDGGIVDSIPLQRAIHDGYRNNVVVLTRNRGYRKENKDIRIPPFVYRKYPKMREALSRRCAAYNAQLEMVERMEEEGDILVIRPQKPVVVDRIERDIQKLTDLYEEGYECAKRQFEVL,not soluble
16,MGSDKIHHHHHHMTIDTNFSKWFLQPSKESAQMYETVMQRALTLVVEHMKEAANPFSGADRHSIQQAVKDAAFISYSGEPIDGVIRAIQEGVMKHSLWISHPSAMAHLHCPPLLPSLVAEVVINALNQSMDSWDQSPSATYVETELLRFFTRSIGYSDLGDGVFTSGGTQSNYMGMLLARNKICESAFATNVQEEGLPVDARKLRILCSQEAHFSVQKSAAQLGLGANAVVQVATNERQQLCVNETRQTINELRLKGLIPFMIVATAGTTDFGSIDKLREIAELAREQELWLHVDAAYGGALLFSRQYGHLLNGLHLADSITIDFHKFYYQSISCGAFFVKDRHEFERIRFHADYLNPEEDKEADIINLVEKSVQTTKRFDALKLLVTFKWMGTEQFGQMIDYTIQLAKETGELLRRYGFDVLNDPELNAVVFRYVPECHRDDQSYVDQLNLTLQRHFYERGDLIMAKTKQRGHVYLKFTMLNPLNTIENMKTQIQKVKKAGIEFEKTQGAIRHEHVIHS,not soluble
17,MGSDKIHHHHHHMTIQDYMLETPVRMREIISNADSLFNEVKRTNLKKIIITGSGTSYHSGVQVQPYLQNLLDIDVVKMYPFMITEDTFKFDNENTLVVGVSQGGSSYSTYNAMKLAEDKGCKIASMAGCKNALIDEISDYILTVNCGEEKSGAKTKGYYCTKLNLMLLGLQIAREKGIISSEKYNEEINKILDAINRFEAVYKLSKQWIERNKEKLVNSKEIRIIGHSDIYGDTLEAALKLLETMRIPVTGYEFEEFIHGIYNAINSDSTIFILDTGKEPRVTKMIDVLSGWTENVFAIGRDVTENDKNLKIDITDNPYYQTFNFIVPIQLICGEIPTLRGVDPSVPKDTRFHMKLGSKKLNK,not soluble
